Assay results as given in PMC9371921, “Strand annealing and motor driven activities of SMARCAL1 and ZRANB3 are stimulated by RAD51 and the paralog complex” (Nucleic Acids Research, 2022).

Molecular target: the molecule itself
Assay: mass photometry; 2 μl (50 nM) protein solution added into 18 μl protein elution buffer; movie recorded for 1 min; Refeyn 2MP mass photometer, NativeMark size marker

B1: RAD51 paralog complex RAD51B-RAD51C-RAD51D-XRCC2 (BCDX2) (complex, human)
chain 1: MGSKKLKRVGLSQELCDRLSRHQILTCQDFLCLSPLELMKVTGLSYRGVHELLCMVSRACAPKMQTAYGIKAQRSADFSPAFLSTTLSALDEALHGGVACGSLTEITGPPGCGKTQFCIMMSILATLPTNMGGLEGAVVYIDTESAFSAERLVEIAESRFPRYFNTEEKLLLTSSKVHLYRELTCDEVLQRIESLEEEIISKGIKLVILDSVASVVRKEFDAQLQGNLKERNKFLAREASSLKYLAEEFSIPVILTNQITTHLSGALASQADLVSPADDLSLSEGTSGSSCVIAALGNTWSHSVNTRLILQYLDSERRQILIAKSPLAPFTSFVYTIKEEGLVLQETTFCSVTQAELNWAPEILPPQPPEQLGLQMCHHTQLIF
chain 2: MRGKTFRFEMQRDLVSFPLSPAVRVKLVSAGFQTAEELLEVKPSELSKEVGISKAEALETLQIIRRECLTNKPRYAGTSESHKKCTALELLEQEHTQGFIITFCSALDDILGGGVPLMKTTEICGAPGVGKTQLCMQLAVDVQIPECFGGVAGEAVFIDTEGSFMVDRVVDLATACIQHLQLIAEKHKGEEHRKALEDFTLDNILSHIYYFRCRDYTELLAQVYLLPDFLSEHSKVRLVIVDGIAFPFRHDLDDLSLRTRLLNGLAQQMISLANNHRLAVILTNQMTTKIDRNQALLVPALGESWGHAATIRLIFHWDRKQRLATLYKSPSQKECTVLFQIKPQGFRDTVVTSACSLQTEGSLSTRKRSRDPEEEL
chain 3: MGVLRVGLCPGLTEEMIQLLRSHRIKTVVDLVSADLEEVAQKCGLSYKALVALRRVLLAQFSAFPVNGADLYEELKTSTAILSTGIGSLDKLLDAGLYTGEVTEIVGGPGSGKTQVCLCMAANVAHGLQQNVLYVDSNGGLTASRLLQLLQAKTQDEEEQAEALRRIQVVHAFDIFQMLDVLQELRGTVAQQVTGSSGTVKVVVVDSVTAVVSPLLGGQQREGLALMMQLARELKTLARDLGMAVVVTNHITRDRDSGRLKPALGRSWSFVPSTRILLDTIEGAGASGGRRMACLAKSSRQPTGFQEMVDIGTWGTSEQSATLQGDQT
chain 4: MCSAFHRAESGTELLARLEGRSSLKEIEPNLFADEDSPVHGDILEFHGPEGTGKTEMLYHLTARCILPKSEGGLEVEVLFIDTDYHFDMLRLVTILEHRLSQSSEEIIKYCLGRFFLVYCSSSTHLLLTLYSLESMFCSHPSLCLLILDSLSAFYWIDRVNGGESVNLQESTLRKCSQCLEKLVNDYRLVLFATTQTIMQKASSSSEEPSHASRRLCDVDIDYRPYLCKAWQQLVKHRMFFSKQDDSQSSNQFSLVSRCLKSNSLKKHFFIIGESGVEFC
notes: human RAD51B, codon-optimized for Sf9, from pFB-FLAG-RAD51Bco-10xHis-RAD51Cco; human RAD51C, codon-optimized for Sf9, from pFB-FLAG-RAD51Bco-10xHis-RAD51Cco; Expressed as a heterotetramer; by mass photometry the preparation was consistent with a dimer of the heterotetramer; also called BCDX2 complex; FLAG-BCDX2 complex; source: Sf9, co-infected with two baculoviruses, purified (Ni-NTA, then …)
In the case of B1, the “stoichiometry N” value is reported as 2.
